Experimental findings from patent publication US20250026827A1 (Alector, published 2025) are described below.

A word on the Kd: it is the equilibrium constant for the complex coming apart. Lower therefore signals higher affinity.

Assay [1] addresses T1, human SIRPα domain 1 (D1) Fc fusion (human, UniProt P78324 32-149).
T1 construct: also called human SIRPα D1-Fc; Human SIRPα Fc; not shown: C-terminal human IgG1 Fc
The assay is described as follows: Octet.

Assay [2] addresses T2, mouse SIRPα D1-Fc (mouse, UniProt P97797 32-150, limits assumed).
T2 construct: domain: D1
T2 sequence (looked up): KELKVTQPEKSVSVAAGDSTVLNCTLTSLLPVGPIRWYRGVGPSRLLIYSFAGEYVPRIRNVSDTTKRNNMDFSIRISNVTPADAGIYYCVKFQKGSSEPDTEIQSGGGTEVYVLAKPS
Description: Octet. Background: Biolayer interferometry detects binding as a change in optical thickness at a sensor tip.
Description: Briefly, Octet affinity measurements were performed by loading IgGs on-line onto AHQ sensors. Sensors were equilibrated off-line in assay buffer for 30 min and then monitored on-line for 60 seconds for baseline establishment. For avid binding measurement, sensors with loaded IgGs were exposed to 100 nM antigen (human SIRPα domain 1 (D1) Fc fusion or SIRPβ1 domain 1 (D1) Fc fusion) for 3 min, and then transferred to assay buffer for 3 min for off-rate measurement. Additional avid binding was determined by loading biotinylated SIRPβ1 monomer on SA sensors and exposing to 100 nM IgG in solution. Monovalent binding measurements were obtained by loading human SIRPα- or SIRPβ1-Fc fusion antigens onto AHQ sensor, followed by exposure to 100 nM anti-SIRPβ1 antibody Fab. Additional monovalent measurements were made by loading biotinylated human SIRPα or SIRPβ1 monomer to SA sensor followed by exposure to 100 nM Fab in solution. Kinetics data were fit using a 1:1 binding model in the data analysis software provided by ForteBio (ForteBio Data Analysis Software 7.0).

Assay [3] deals with T3, mouse SIRPβ1 on CHO cells (mouse).
T3 construct: Whole entry
T3 chain: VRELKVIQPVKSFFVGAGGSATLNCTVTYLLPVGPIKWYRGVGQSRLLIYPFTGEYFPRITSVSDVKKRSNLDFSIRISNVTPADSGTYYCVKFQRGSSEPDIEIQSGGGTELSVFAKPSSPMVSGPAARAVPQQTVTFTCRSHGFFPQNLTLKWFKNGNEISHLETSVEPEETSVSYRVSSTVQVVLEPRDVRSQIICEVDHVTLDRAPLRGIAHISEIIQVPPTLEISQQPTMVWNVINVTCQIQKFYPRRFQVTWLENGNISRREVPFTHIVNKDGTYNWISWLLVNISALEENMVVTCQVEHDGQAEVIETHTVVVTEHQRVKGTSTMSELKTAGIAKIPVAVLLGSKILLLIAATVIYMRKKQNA
The assay is described as follows: flow cytometry.

The target of assay [4] is T4, human SIRPα on cells (human, UniProt P78324 31-504).
T4 construct: Whole entry
Description: flow cytometry. Background: A flow cytometer gives signals particle by particle.

Assay [5] addresses T5, mouse SIRPα on cells (mouse, UniProt P97797 32-513).
T5 construct: whole, on cells
T5 sequence (looked up): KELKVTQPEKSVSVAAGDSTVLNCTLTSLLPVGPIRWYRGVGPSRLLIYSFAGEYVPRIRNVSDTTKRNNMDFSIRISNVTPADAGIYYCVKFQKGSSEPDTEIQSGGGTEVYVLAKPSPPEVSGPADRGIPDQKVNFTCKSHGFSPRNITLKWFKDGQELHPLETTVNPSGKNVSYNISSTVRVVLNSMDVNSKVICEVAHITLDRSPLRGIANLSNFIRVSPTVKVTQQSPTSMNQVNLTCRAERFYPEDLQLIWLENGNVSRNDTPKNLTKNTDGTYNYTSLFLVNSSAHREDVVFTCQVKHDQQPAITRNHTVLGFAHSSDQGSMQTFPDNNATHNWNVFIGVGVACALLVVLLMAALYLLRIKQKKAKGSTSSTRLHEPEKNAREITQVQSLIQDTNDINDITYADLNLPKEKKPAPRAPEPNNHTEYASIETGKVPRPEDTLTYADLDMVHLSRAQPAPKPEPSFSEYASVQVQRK
Description: flow cytometry.

Assay [6] addresses T6, human SIRPβ1 isoform 1 on cells (human, UniProt O00241 30-398).
T6 construct: On CHO cells (low level), on BWZ/BW5147.G.1.4 cells (reporter cells co-express human DAP12) or on primary human myeloid cells; also called huSIRPβ1; BWZ-huSIRPβ1
Description: flow cytometry.
Description: (§1) Initial characterization of anti-SIRPβ1 antibodies involved determining their ability to bind cell lines expressing human or mouse SIRPβ1. Cells were harvested, plated at 10⁶/ml in a 96-well plate, washed, and incubated in 100 μl FACS buffer containing 1 μg/ml anti-SIRPβ1 antibody for 0.5 hour on ice. Cells were then washed twice and incubated in 100 μl FACS buffer containing 0.5 μg/ml PE-conjugated secondary antibody for 30 minutes on ice. Cells were washed twice in cold FACS buffer and acquired on a BD FACS Canto. Data analysis and calculation of mean fluorescence intensity (MFI) values or 00 positive cells was performed with FlowJo (TreeStar) software version 10.0.7.
(§2) As a negative control, the anti-SIRPβ1 antibodies were also screened for surface binding to CHO cells overexpressing recombinant mouse SIRPβ31. […] Given the high sequence similarity between receptors of the SIRPβ family, anti-SIRPβ1 antibodies were also screened for cross-reactivity to human and mouse SIRPα.

Assay [7] has as its target T3, mouse SIRPβ1 on CHO cells. The assay is described as follows: flow cytometry.
Description: as §1, §2
Assay [8] addresses T4, human SIRPα on cells. The assay is described as follows: flow cytometry. This is another data set of the same source.
Description: as §1, §2
Assay [9] deals with T5, mouse SIRPα on cells. The assay is described as follows: flow cytometry. This is another data set of the same source.
Description: as §1, §2
Assay [10] has as its target T7, human SIRPβ1 domain 1 (D1) Fc fusion (human, UniProt O00241 30-148).
T7 construct: Made in HEK293/T cells with a heterologous signal peptide; also called Human SIRPβ1 D1-Fc; Human SIRPβ1-Fc; not shown: C-terminal human IgG1 Fc
The assay is described as follows: Octet, IgG avid.
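For FOB in this document: antibodies tested at 1 µg/ml for 30 min on ice against receptor-expressing cells, detected with a PE-labelled secondary antibody, read as mean fluorescence intensity relative to background.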

T7 sequence (O00241 30-148 limits assumed): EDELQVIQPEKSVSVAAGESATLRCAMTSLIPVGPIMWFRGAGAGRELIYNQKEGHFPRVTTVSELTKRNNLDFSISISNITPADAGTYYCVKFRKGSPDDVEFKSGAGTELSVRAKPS
T6 sequence (O00241 30-398): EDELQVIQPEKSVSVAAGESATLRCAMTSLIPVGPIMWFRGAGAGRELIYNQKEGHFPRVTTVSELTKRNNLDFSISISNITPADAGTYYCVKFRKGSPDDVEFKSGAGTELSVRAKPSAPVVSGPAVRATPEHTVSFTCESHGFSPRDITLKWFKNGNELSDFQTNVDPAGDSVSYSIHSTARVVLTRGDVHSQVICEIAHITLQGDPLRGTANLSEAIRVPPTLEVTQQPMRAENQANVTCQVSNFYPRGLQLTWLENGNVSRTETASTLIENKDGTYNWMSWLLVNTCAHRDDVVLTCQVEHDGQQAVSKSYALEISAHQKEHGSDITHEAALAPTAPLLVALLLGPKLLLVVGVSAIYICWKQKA

B1: SB-17 (antibody, V domains shown)
VH: QVQLVQSGAEVKKPGASVKVSCKASGYTFTSYGISWVRQAPGQGLEWMGWISAYNGNTNYAQKLQGRVTMTTDTSTSTAYMELRSLRSDDTAVYYCARGPLLYGDYHVRYGMDVWGQGTTVTVSS
VL: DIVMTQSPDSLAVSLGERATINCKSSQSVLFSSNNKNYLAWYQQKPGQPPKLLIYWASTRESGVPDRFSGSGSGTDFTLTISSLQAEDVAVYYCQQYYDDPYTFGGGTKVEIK
notes: IgG
As to B1, the binding result is reported as “no binding (tested: 100 nM)” in assay [1]; “no binding (tested: 100 nM)” in assay [2]; “no binding (tested: 1 ug/ml)” in [3]; “no binding (tested: 1 ug/ml)” in [4]; “no binding (tested: 1 ug/ml)” in assay [5]. Further, the FOB in assay [6] worked out at 2.8 fold over background; in [7], 1.3 fold over background; in assay [8], 2.5 fold over background; in assay [9], 1.6 fold over background. In addition, the Kd in [10] was found to be 3.32 nM.

B2: SB-19 (antibody, V domains shown)
VH: QVQLVQSGAEVKKPGSSVKVSCKASGGTFSSYAISWVRQAPGQGLEWMGGIIPIFGTANYAQKFQGRVTITADESTSTAYMELSSLRSEDTAVYYCARDGGGGYAYEYFQHWGQGTLVTVSS
VL: not shown
notes: IgG
For the molecule B2, the binding result in assay [1] is listed as “no binding (tested: 100 nM)”; in assay [2], “no binding (tested: 100 nM)”; in assay [3] it was “no binding (tested: 1 ug/ml)”; in [4], “no binding (tested: 1 ug/ml)”; in assay [5] it was “no binding (tested: 1 ug/ml)”. Besides, the FOB in [6] stood at 1.8 fold over background; in assay [7], 1.3 fold over background; in assay [8], 2.2 fold over background; in assay [9], 0.9 fold over background. This molecule came in with a Kd in [10] of 7.41 nM.

B3: SB-15 (antibody, V domains shown)
VH: QLQLQESGPGLVKPSETLSLTCTVSGGSISSNSYYWGWIRQPPGKGLEWIGSIYYSGSTYYNPSLKSRVTISVDTSKNQFSLKLSSVTAADTAVYYCAREVGAPPSYPFDIWGQGTMVTVSS
VL: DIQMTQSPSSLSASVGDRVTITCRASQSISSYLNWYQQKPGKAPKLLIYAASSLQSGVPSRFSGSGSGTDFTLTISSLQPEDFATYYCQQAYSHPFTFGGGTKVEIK
notes: IgG
Turning to B3, the binding result in [1] is “no binding (tested: 100 nM)”; in [2], “no binding (tested: 100 nM)”; in [3], “no binding (tested: 1 ug/ml)”; in [4], “no binding (tested: 1 ug/ml)”; in assay [5] it was “no binding (tested: 1 ug/ml)”. In addition, the FOB was determined as 8 fold over background in assay [6], 1.3 fold over background in [7], 2.2 fold over background in assay [8] and 1.4 fold over background in [9]. Further, binding in assay [10] was characterised by a dissociation constant (Kd) of 3.45 nM.

B4: SB-29 (antibody, V domains shown)
VH: QVQLVQSGAEVKKPGSSVKVSCKASGGTFSSYAISWVRQAPGQGLEWMGSIIPIFGTANYAQKFQGRVTITADESTSTAYMELSSLRSEDTAVYYCARAPYGSSSGYGYFDLWGRGTLVTVSS
VL: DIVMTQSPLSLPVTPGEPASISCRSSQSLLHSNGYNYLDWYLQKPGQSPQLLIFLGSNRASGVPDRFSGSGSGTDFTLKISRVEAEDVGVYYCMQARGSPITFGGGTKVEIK
notes: IgG
On to B4, for which the binding result is recorded as “no binding (tested: 100 nM)” in assay [1]; “no binding (tested: 100 nM)” in assay [2]; “no binding (tested: 1 ug/ml)” in assay [3]; “no binding (tested: 1 ug/ml)” in assay [4]; “no binding (tested: 1 ug/ml)” in [5]. Besides, the FOB in [6] was determined as 1.8 fold over background; in [7] it was 1.2 fold over background; in assay [8], 1.9 fold over background; in [9] it was 0.9 fold over background. The molecule also gave a Kd in assay [10] of 10.7 nM.

B5: SB-49 (antibody, V domains shown)
VH: QLQLQESGPGLVKPSETLSLTCTVSGGSISSSDYYWGWIRQPPGKGLEWIGSIYYSGSTYYNPSLKSRVTISVDTSKNQFSLKLSSVTAADTAVYYCARGPTGYKDKWRYYYGMDVWGQGTTVTVSS
VL: DIQMTQSPSSLSASVGDRVTITCQASQDITNYLNWYQQKPGKAPKLLIYDASNLETGVPSRFSGSGSGTDFTFTISSLQPEDIATYYCQQYFHPPLTFGGGTKVEIK
notes: IgG
As to B5, the binding result is listed as “no binding (tested: 100 nM)” in [2], “no binding (tested: 1 ug/ml)” in assay [3] and “no binding (tested: 1 ug/ml)” in [5]. For the same molecule, the FOB in assay [6] is 3.4 fold over background; in [7] it was 1.2 fold over background; in assay [8], 2.7 fold over background; in assay [9], 1.7 fold over background. Moreover, the Kd in [10] amounted to 4.39 nM.

B6: SB-6 (antibody, V domains shown)
VH: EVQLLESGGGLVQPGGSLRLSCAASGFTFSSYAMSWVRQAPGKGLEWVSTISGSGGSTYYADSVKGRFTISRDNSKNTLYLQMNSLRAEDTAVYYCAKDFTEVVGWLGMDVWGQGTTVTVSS
VL: EIVLTQSPGTLSLSPGERATLSCRASQSVSSSYLAWYQQKPGQAPRLLIYGASSRATGIPDRFSGSGSGTDFTLTISRLEPEDFAVYYCQQSGHLPITFGGGTKVEIK
notes: IgG
B6: the binding result is “no binding (tested: 100 nM)” in assay [1]; “no binding (tested: 100 nM)” in [2]; “no binding (tested: 1 ug/ml)” in assay [3]; “no binding (tested: 1 ug/ml)” in assay [4]; “no binding (tested: 1 ug/ml)” in assay [5]. Besides, the FOB came to 4.3 fold over background in assay [6], 1.2 fold over background in assay [7], 1.2 fold over background in assay [8] and 1 fold over background in [9]. Besides, in [10], the Kd came out at 1.3 nM.

B7: SB-28 (antibody, V domains shown)
VH: QLQLQESGPGLVKPSETLSLTCTVSGGSISSSSYYWGWIRQPPGKGLEWIGSISYSGSTYYNPSLKSRVTISVDTSKNQFSLKLSSVTAADTAVYYCARDPRDYSSGSSGGGWGYFDLWGRGTLVTVSS
VL: EIVLTQSPGTLSLSPGERATLSCRASQSVSSSYLAWYQQKPGQAPRLLIYGASSRATGIPDRFSGSGSGTDFTLTISRLEPEDFAVYYCQQDGNFPLTFGGGTKVEIK
notes: IgG
With B7, the binding result in [1] is given as “no binding (tested: 100 nM)”; in assay [2] it was “no binding (tested: 100 nM)”; in [3], “no binding (tested: 1 ug/ml)”; in assay [4], “no binding (tested: 1 ug/ml)”; in assay [5] it was “no binding (tested: 1 ug/ml)”. Also, the FOB in [6] stood at 4.1 fold over background; in assay [7], 1.2 fold over background; in assay [8] it was 2.1 fold over background; in assay [9], 1 fold over background. In assay [10], the Kd turned out to be 5.59 nM.

B8: SB-21 (antibody, V domains shown)
VH: QVQLVQSGAEVKKPGASVKVSCKASGYTFTSNGISWVRQAPGQGLEWMGWISAYNGNTNYAQKLQGRVTMTTDTSTSTAYMELRSLRSDDTAVYYCARVGNMDQEYFDLWGRGTLVTVSS
VL: not shown
notes: IgG
Consider B8, for which the binding result in assay [1] was “no binding (tested: 100 nM)”; in assay [2], “no binding (tested: 100 nM)”; in [3] it was “no binding (tested: 1 ug/ml)”; in assay [4] it was “no binding (tested: 1 ug/ml)”; in assay [5], “no binding (tested: 1 ug/ml)”. The FOB in [6] was 1.9 fold over background; in assay [7], 1.3 fold over background; in [8], 2 fold over background; in assay [9] it was 1.2 fold over background. In addition, in [10], the affinity, expressed as Kd, was 5.86 nM.

B9: SB-26 (antibody, V domains shown)
VH: QVQLVQSGAEVKKPGSSVKVSCKASGGTFSSYAISWVRQAPGQGLEWMGGIIPIFGTANYAQKFQGRVTITADESTSTAYMELSSLRSEDTAVYYCARDGSAGRQEHGMDVWGQGTTVTVSS
VL: not shown
notes: IgG
Consider B9, for which the binding result in assay [1] is “no binding (tested: 100 nM)”; in assay [2], “no binding (tested: 100 nM)”; in [3], “no binding (tested: 1 ug/ml)”; in assay [4], “no binding (tested: 1 ug/ml)”; in assay [5], “no binding (tested: 1 ug/ml)”. Also, the FOB in [6] came to 2 fold over background; in assay [7], 1.3 fold over background; in assay [8], 2.1 fold over background; in assay [9] it was 1.2 fold over background. The molecule further registered a dissociation constant Kd in assay [10] of 6.17 nM.
